The target of test [1] is mouse Mcl-1 with truncations of 151 amino acid residues at its N-terminus and 23 residues at its C-terminus (mouse) (UniProt P97287). In words: competition phage ELISA.
For test [2], the target named is Recombinant human Bcl-xL with a 25 amino acid truncation of its C-terminus (human) (UniProt Q07817). Nature of the test: competition phage ELISA.

No end group written: not given here. FLAG = FLAG tag

Chain of Recombinant human Bcl-xL with a 25 amino acid truncation of its C-terminus (human) (Q07817 1-208): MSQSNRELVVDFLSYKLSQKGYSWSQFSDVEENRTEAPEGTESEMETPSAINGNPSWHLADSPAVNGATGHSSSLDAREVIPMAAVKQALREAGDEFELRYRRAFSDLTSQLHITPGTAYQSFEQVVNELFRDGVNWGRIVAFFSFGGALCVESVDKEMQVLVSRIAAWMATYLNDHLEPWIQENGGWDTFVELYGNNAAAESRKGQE
Chain of mouse Mcl-1 with truncations of 151 amino acid residues at its N-terminus and 23 residues at its C-terminus (mouse) (P97287 152-308): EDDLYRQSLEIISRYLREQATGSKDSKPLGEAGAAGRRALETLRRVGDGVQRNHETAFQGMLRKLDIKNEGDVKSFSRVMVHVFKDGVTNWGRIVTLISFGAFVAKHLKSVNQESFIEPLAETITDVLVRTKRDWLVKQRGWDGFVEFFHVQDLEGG

In test [1], PSSTMGQAGRQLAIIGDDINRRYDSE [Bak BH3 V8A, phage-displayed] showed a Fold/wt of 4 fold and an IC50 of 79 nM.

With {FLAG}-RAELAPEFAAQLRKIGDKVYCTWSAP-{GGGT-g3(249-406)} [mNoxaA BH3 P5A, phage-displayed], in test [1], the Fold/wt was determined as 1 fold and the IC50 came out at 20 nM.

Take {FLAG}-RAELPPEFAAQLAKIGDKVYCTWSAP-{GGGT-g3(249-406)} [mNoxaA BH3 R13A, phage-displayed]: in test [1], the Fold/wt was found to be 1 fold and the IC50 amounted to 57 nM.

On to {FLAG}-RAELPAEFAAQLRKIGDKVYCTWSAP-{GGGT-g3(249-406)} [mNoxaA BH3 P6A, phage-displayed], for which, in test [1], the Fold/wt is under 1 fold and the half-inhibitory concentration (IC50) came out at 8 nM.

PSSTMGQVGRQLAIIGDDANRRYDSE [Bak BH3 I19A, phage-displayed]: in test [1], the Fold/wt amounted to 9 fold and the IC50 turned out to be 185 nM.

As for {FLAG}-RAEAPPEFAAQLRKIGDKVYCTWSAP-{GGGT-g3(249-406)} [mNoxaA BH3 L4A, phage-displayed], in test [1], the Fold/wt was determined as 1 fold and the IC50 amounted to 24 nM.

NLWEAQRYGRELRRMSDEFVDSFKKG [Bad BH3 A4E, phage-displayed]: in test [2], the Fold/wt was determined as 2 fold and the IC50 turned out to be 4 nM.

Turning to {FLAG}-RAELPPEFAAQARKIGDKVYCTWSAP-{GGGT-g3(249-406)} [mNoxaA BH3 L12A, phage-displayed], in test [1], the Fold/wt was found to be 2 fold and the IC50 was 67 nM.

In test [1], {FLAG}-RAELPPEFAAQLRKIGDKVYATWSAP-{GGGT-g3(249-406)} [mNoxaA BH3 C21A, phage-displayed] yielded a Fold/wt of 1 fold and an IC50 of 19 nM.

In the case of NLWAAQRYGRELARMSDEFVDSFKKG [Bad BH3 R13A, phage-displayed], in test [2], the Fold/wt turned out to be 1 fold and the IC50 turned out to be 3 nM.

On to {FLAG}-RAELPPEFEAQLRKIGDKVYCTWSAP-{GGGT-g3(249-406)} [mNoxaA BH3 A9E, phage-displayed], for which, in test [1], the Fold/wt was determined as 2 fold and the IC50 is 76 nM.

In test [1], QEDIIRNIARHLAQAGDSMDRSIPPG [Bid BH3 V15A, phage-displayed] came in with a Fold/wt of 2 fold and an IC50 of 245 nM.

In the case of NLAAAQRYGRELRRMSDEFVDSFKKG [Bad BH3 W3A, phage-displayed], in test [2], the Fold/wt turned out to be 1 fold and the IC50 is 3 nM.

Regarding NAWAAQRYGRELRRMSDEFVDSFKKG [Bad BH3 L2A, phage-displayed], in test [2], the Fold/wt was 2 fold and the IC50 worked out at 4 nM.

Consider NLWAAQAYGRELRRMSDEFVDSFKKG [Bad BH3 R7A, phage-displayed], for which, in test [2], the Fold/wt worked out at 2 fold and the IC50 amounted to 4 nM.

In test [1], {FLAG}-AAELPPEFAAQLRKIGDKVYCTWSAP-{GGGT-g3(249-406)} [mNoxaA BH3 R1A, phage-displayed] yielded a Fold/wt of 1 fold and an IC50 of 20 nM.

Regarding ALWAAQRYGRELRRMSDEFVDSFKKG [Bad BH3 N1A, phage-displayed], in test [2], the Fold/wt was determined as 1 fold and the IC50 amounted to 2 nM.

With NLWAAQRYGRELRRMSAEFVDSFKKG [Bad BH3 D17A, phage-displayed], in test [2], the Fold/wt was determined as 7 fold and the IC50 came out at 16 nM.

Take NLWAAQRYGRELRRASDEFVDSFKKG [Bad BH3 M15A, phage-displayed]: in test [2], the Fold/wt was determined as 3 fold and the IC50 amounted to 6 nM.

Regarding NLWAAQRYGRELRRMSDAFVDSFKKG [Bad BH3 E18A, phage-displayed], in test [2], the Fold/wt came out at 2 fold and the IC50 worked out at 4 nM.

Consider {FLAG}-RAELPPEFAAQLRKIGDAVYCTWSAP-{GGGT-g3(249-406)} [mNoxaA BH3 K18A, phage-displayed], for which, in test [1], the Fold/wt is under 1 fold and the IC50 worked out at 11 nM.

Take {FLAG}-RAELPPEFAAQLRKIGDKVYCTWSEP-{GGGT-g3(249-406)} [mNoxaA BH3 A25E, phage-displayed]: in test [1], the Fold/wt was 1 fold and the IC50 came out at 33 nM.

In test [1], {FLAG}-RAELPPAFAAQLRKIGDKVYCTWSAP-{GGGT-g3(249-406)} [mNoxaA BH3 E7A, phage-displayed] gave a Fold/wt of 1 fold and a 50% inhibitory concentration (IC50) of 43 nM.

Consider RAELPPEFAAQLRKIGDKVYCTWSAP-{GGGT-g3(249-406)} (not fully specified (N-terminus)) [mNoxaA BH3 wild type, phage-displayed], for which, in test [1], the Fold/wt was 1 fold and the IC50 was 39 nM.

In the case of NLWAAQRYGAELRRMSDEFVDSFKKG [Bad BH3 R10A, phage-displayed], in test [2], the Fold/wt was found to be 1 fold and the IC50 was 3 nM.

Turning to {FLAG}-RAALPPEFAAQLRKIGDKVYCTWSAP-{GGGT-g3(249-406)} [mNoxaA BH3 E3A, phage-displayed], in test [1], the Fold/wt was determined as 1 fold and the IC50 worked out at 30 nM.

On to NLWAAQRYGRELRAMSDEFVDSFKKG [Bad BH3 R14A, phage-displayed], for which, in test [2], the Fold/wt was 2 fold and the IC50 was 4 nM.

In test [1], RAELPPEFAAQLRKIGDKVYCTASAP-{GGGT-g3(249-406)} (not fully specified (N-terminus)) [mNoxaA BH3 W23A, phage-displayed] registered a Fold/wt of 2 fold and an IC50 of 69 nM.

In test [1], {FLAG}-RAELPPEFAAALRKIGDKVYCTWSAP-{GGGT-g3(249-406)} [mNoxaA BH3 Q11A, phage-displayed] gave a Fold/wt of 1 fold and an IC50 of 22 nM.

PSSTMGQVERQLAIIGDDINRRYDSE [Bak BH3 G9E, phage-displayed]: in test [1], the Fold/wt was found to be 21 fold and the IC50 is 438 nM.

{FLAG}-RAELPPEFAEQLRKIGDKVYCTWSAP-{GGGT-g3(249-406)} [mNoxaA BH3 A10E, phage-displayed]: in test [1], the Fold/wt was found to be 1 fold and the IC50 worked out at 43 nM.

Take PSSTMGQVGRQAAIIGDDINRRYDSE [Bak BH3 L12A, phage-displayed]: in test [1], the Fold/wt was found to be 20 fold and the IC50 came out at 414 nM.

As for {FLAG}-RAELPPEFAAQLRKIGDKVYCTWAAP-{GGGT-g3(249-406)} [mNoxaA BH3 S24A, phage-displayed], in test [1], the Fold/wt is under 1 fold and the IC50 amounted to 13 nM.

Regarding {FLAG}-RAELPPEFAAQLRKIGDKVYCAWSAP-{GGGT-g3(249-406)} [mNoxaA BH3 T22A, phage-displayed], in test [1], the Fold/wt was under 1 fold and the IC50 turned out to be 14 nM.

In test [1], RAELPPEFAAQLRKIGDKVACTWSAP-{GGGT-g3(249-406)} (not fully specified (N-terminus)) [mNoxaA BH3 Y20A, phage-displayed] had a Fold/wt of 1 fold and an IC50 of 32 nM.

In the case of NLWAAQRYGRELRRMSDEAVDSFKKG [Bad BH3 F19A, phage-displayed], in test [2], the Fold/wt stood at 12 fold and the IC50 was found to be 27 nM.

In test [1], {FLAG}-REELPPEFAAQLRKIGDKVYCTWSAP-{GGGT-g3(249-406)} [mNoxaA BH3 A2E, phage-displayed] had a Fold/wt of 1 fold and an IC50 of 22 nM.

For the molecule NLWAEQRYGRELRRMSDEFVDSFKKG [Bad BH3 A5E, phage-displayed], in test [2], the Fold/wt was 5 fold and the IC50 worked out at 12 nM.

Turning to {FLAG}-RAELPPEFAAQLRAIGDKVYCTWSAP-{GGGT-g3(249-406)} [mNoxaA BH3 K14A, phage-displayed], in test [1], the Fold/wt amounted to 1 fold and the IC50 was 37 nM.

With NLWAAQRAGRELRRMSDEFVDSFKKG [Bad BH3 Y8A, phage-displayed], in test [2], the Fold/wt stood at 3 fold and the IC50 was determined as 7 nM.

In test [1], PSSTMGQVGRQLAIAGDDINRRYDSE [Bak BH3 I15A, phage-displayed] had a Fold/wt of 25 fold and an IC50 of 517 nM.

Turning to NLWAAARYGRELRRMSDEFVDSFKKG [Bad BH3 Q6A, phage-displayed], in test [2], the Fold/wt was found to be 2 fold and the IC50 came to 3 nM.

In test [1], PSSTMGQVGRQLEIIGDDINRRYDSE [Bak BH3 A13E, phage-displayed] had a Fold/wt of 17 fold and an IC50 of 356 nM.

In test [1], {FLAG}-RAELPPEAAAQLRKIGDKVYCTWSAP-{GGGT-g3(249-406)} [mNoxaA BH3 F8A, phage-displayed] returned a Fold/wt of 1 fold and an IC50 of 24 nM.

Values taken from US20090048164A1.
